Source: the supplement of paper PMC9732359
± gives the uncertainty stated by the source.

Test: protein stability index of a GFP-peptide fusion (yeast GPS) (PSI 1-4); higher = more stable; sorted into four equal gates, so the index is relative within each strain
Details: san1∆
How it was run: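 The protein stability index of a peptide was calculated by multiplying its read frequency in each gate by that gate's number and adding the products. The peptides were tiled 17-residue stretches of yeast proteins, fused downstream of GFP on a Cherry-expressing plasmid and carried in yeast as a pooled library. Mid-log cultures in leucine-free medium were sorted into four equal gates by GFP/Cherry ratio, and each gate's plasmids were PCR-amplified and Illumina-sequenced.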

For QQNIKFRRDFLLREYDI [YJL039C/NUP192], the protein stability index was 2.9 ± 0.045.

Same assay, conditions: ubr1∆

Going from PSHYPHPYEYEIDHQEY [RRP6] to PSKKRRRDFGAPANKRP [SMD1], the protein stability index rises from 2.27 ± 0.035 to 3.04 ± 0.09.

Compared with PSLRDRRERRLIFGTIA [RPT3], PSRRERRREQTTYSVDD [ISW2] is higher in protein stability index: 1.85 ± 0.07 for the first, 2.35 ± 0.14 for the second.

Going from PSTGGVKKPHRYKPGTV [HHT1] to PSTNKKLSISNAASQQP [GAL11], the protein stability index rises from 1.81 ± 0.072 to 2.74 ± 0.075.

First: PSYAERQSSDESDNYRL [YML031W/NDC1]
Second: PTATPSPFRPLEKTSRI [YMR153W/NUP53]
The protein stability index of the first is lower: 2.7 ± 0.036 for the first, 2.81 ± 0.054 for the second.

First: PTGPKTAIDKNGNITYS [FAS2]
Second: PTKAAQRARDQDSIDIS [GAL11]
The protein stability index of the first is lower: 2.91 ± 0.057 for the first, 3.22 ± 0.073 for the second.

Going from PTLFDLAFNYITYDKQE [SRP68] to PTLVRSVISGNLSLYEA [CSN12], the protein stability index rises from 1.54 ± 0.059 to 2.91 ± 0.054.

Compared with PTPSVKTEPVGTGLQSY [RPC53], PTVDEQRQYKVQLLLHI [SNF11] is lower in protein stability index: 3.25 ± 0.11 for the first, 1.89 ± 0.065 for the second.

Going from PVDITMMENYQNISPVY [PRP8] to PVEKVKEHDEIEEQGDA [DPB4], the protein stability index rises from 2.06 ± 0.038 to 3.5 ± 0.11.

PVIDTQIANEFNTQQGI [YDL116W/NUP84] and PVKSIRARLKGKEGRIR [RPO21] are within error of each other in protein stability index: 2.95 ± 0.047 for the first, 2.94 ± 0.079 for the second.

First: PYCPIASITGTGSNDRC [YMR129W/POM152]
Second: PYFEQKIQETELKIRSK [RPT6]
The protein stability index of the first is lower: 1.64 ± 0.055 for the first, 3.04 ± 0.088 for the second.

Compared with PYGSFHQQQLQQPHYIQ [DSN1], PYKYRLREEIFIANEGV [RPL2A] is lower in protein stability index: 3.1 ± 0.048 for the first, 2.86 ± 0.054 for the second.

PYMNHKNTSSMDFLNSM [GAL11] and QAGVTKASVTIVFDNTD [SMC2] are within error of each other in protein stability index: 3.04 ± 0.044 for the first, 3.09 ± 0.047 for the second.

First: QAPTELELQVAQAFVEL [RPS7A]
Second: QCIVYPNCLFILKLLNG [SOH1]
The protein stability index of the first is higher: 2.45 ± 0.046 for the first, 1.29 ± 0.047 for the second.

QDDDDYVDTATAKRKSR [IRR1] and QDDEYVKDWLYDSRPLE [PRP8] are within error of each other in protein stability index: 2.93 ± 0.039 for the first, 3.02 ± 0.068 for the second.

QDEEQTEHLTELSDNEE [YCG1] and QDNHHITKVTENLFSKE [YMR129W/POM152] are within error of each other in protein stability index: 3.02 ± 0.062 for the first, 3.1 ± 0.049 for the second.

Going from QDPKTLVALLSRDLWCF [SSN2] to QDQYKEGIKVVDIDDPD [SNF2], the protein stability index rises from 1.54 ± 0.073 to 2.54 ± 0.073.

Going from QDRLSDLIHKSEAFPSL [SMC4] to QDYYIIGANIYQSPTIF [MED6], the protein stability index falls from 3.03 ± 0.088 to 2.46 ± 0.029.

Going from QEFFFHAMGGREGLIDT [RPO21] to QEHTIFTQLKKNIPKTR [SNU114], the protein stability index falls from 2.08 ± 0.063 to 1.62 ± 0.037.

Going from QEKESQIQLAESELSLL [SMC4] to QENGTIFRGSLIGCIPY [YDL088C/ASM4], the protein stability index falls from 2.71 ± 0.039 to 2.5 ± 0.038.

Compared with QEQVQDYVNKTNSHLPA [FAS1], QESFNSVQNLDQLLTDL [NUT1] is higher in protein stability index: 2.32 ± 0.064 for the first, 3.17 ± 0.068 for the second.

Going from QFEKSRKVSGPRALQPS [RET1] to QFNKILPEPTEGFAADD [FAS1], the protein stability index falls from 3.06 ± 0.066 to 2.77 ± 0.11.

Going from QFQRLAPSLTVPPIASP [PRE2] to QGDGLLTKLQKYGAAVR [RPN7], the protein stability index rises from 2.15 ± 0.038 to 3.28 ± 0.19.

Compared with QGIVRVYSKQATFLLTD [MCD1], QGKHTKFENDELAESTT [LRP1] is higher in protein stability index: 2.03 ± 0.037 for the first, 3.21 ± 0.077 for the second.

First: QGNYVTEDIREGDQAEV [YMR129W/POM152]
Second: QGRFRGNLSGKRVDFSG [RPO31]
The protein stability index of the first is higher: 3.39 ± 0.083 for the first, 2.56 ± 0.12 for the second.

Compared with QGRRLGESIMSEEPTDF [MCD1], QGRRNSRNFSTRDEETT [SIR4] is lower in protein stability index: 3.23 ± 0.092 for the first, 2.98 ± 0.041 for the second.

Going from QGVTCLHLAVGKKWFEV [NAS6] to QHPFPLAHSQHRCAIRS [SSN2], the protein stability index falls from 3.14 ± 0.14 to 1.27 ± 0.034.

QHTSFQEAVNSLKGYKI [CSI1] and QIAAQSPVELSRMFEEV [SMC1] are within error of each other in protein stability index: 3.39 ± 0.067 for the first, 3.27 ± 0.075 for the second.

Compared with QIDQLNRLLPNLPEEER [GRR1], QIFVRGSQIKFIVVPDL [SMD3] is lower in protein stability index: 2.51 ± 0.083 for the first, 2.02 ± 0.066 for the second.

Going from QIILAYIKYNILLTSIS [SRP68] to QIILDRFAPDNQVTDSS [SIR3], the protein stability index rises from 1.18 ± 0.15 to 3.11 ± 0.098.

First: QIIVTDGKLEPSTRSNF [YJL039C/NUP192]
Second: QIKTLPEQYSDILLNER [AAR2]
The protein stability index of the first is higher: 3.32 ± 0.18 for the first, 2.95 ± 0.072 for the second.

First: QIMQNPTHYKIPAWFLN [RPS18A]
Second: QIQFTPLIKKIKYEPRF [SMC3]
The protein stability index of the first is lower: 1.6 ± 0.048 for the first, 2.43 ± 0.062 for the second.

Going from QIQKNVDLLQFPWLNAI [POP3] to QIRACKDLKHIIYYKFN [PRP8], the protein stability index falls from 2.35 ± 0.06 to 1.59 ± 0.042.

Compared with QISLNRLIDSMKQYSYL [RRI1], QITKFPKYRDNLATWYH [SSN3] is lower in protein stability index: 3.11 ± 0.12 for the first, 2.37 ± 0.041 for the second.

Compared with QKDKSDTYKRFKYLLGV [ISW2], QKEEGRSFTKAIEDAKK [YLR335W/NUP2] is higher in protein stability index: 1.58 ± 0.048 for the first, 2.8 ± 0.069 for the second.

First: QKLLKQLDSDANKLSKS [ISW2]
Second: QKVSQLESADKQLEKRD [POP4]
The protein stability index of the first is lower: 2.98 ± 0.04 for the first, 3.35 ± 0.077 for the second.

First: QKYNLLHVLPTLNSRAL [SNM1]
Second: QKYTKEMIDSHIKEASE [SNF2]
The protein stability index of the first is lower: 1.56 ± 0.11 for the first, 3.02 ± 0.037 for the second.

Going from QLAPSSVDPQSSSTQNV [DIS3] to QLDGFSSDDRVKVLAAT [RPT5], the protein stability index falls from 2.63 ± 0.098 to 1.58 ± 0.12.

Going from QLEEDENITNKVTEKVL [CSI1] to QLEKKIRFVCLSNCLAN [BRR2], the protein stability index falls from 3.13 ± 0.055 to 1.63 ± 0.045.

First: QLENADTGTLDTKSVVG [RPN2]
Second: QLESIYFRILLPYERHM [SWI1]
The protein stability index of the first is higher: 3.04 ± 0.075 for the first, 1.9 ± 0.053 for the second.

Compared with QLESYEYMVQYIDEMYN [RRI1], QLGLQTVIRGNSIISLE [SMX2] is lower in protein stability index: 2.42 ± 0.071 for the first, 2.25 ± 0.058 for the second.

QLHFSLLDEEAEQSFDQ [RPO21] and QLIAKNVANVSGSTEKA [SIR3] are within error of each other in protein stability index: 2.64 ± 0.22 for the first, 2.88 ± 0.061 for the second.

Going from QLIPIILRQRGPGFKFV [SRB4] to QLISAVLVSMGSSNKAV [YJL039C/NUP192], the protein stability index falls from 1.69 ± 0.078 to 1.23 ± 0.084.

Compared with QLKHTKLALAENDTNMN [SMC4], QLLTPGSKISSNDLDKF [YGL172W/NUP49] is lower in protein stability index: 3.17 ± 0.048 for the first, 2.54 ± 0.2 for the second.

First: QLPVGFKNMGNTCYLNA [UBP6]
Second: QLQKILESLKPIDDTMT [MTW1]
The protein stability index of the first is lower: 1.6 ± 0.084 for the first, 2.59 ± 0.042 for the second.

First: QMEDMEESINEFKSIEI [SMC4]
Second: QMIELNRQICLVQKTVQ [GRR1]
The protein stability index of the first is higher: 2.93 ± 0.085 for the first, 2.09 ± 0.055 for the second.

First: QNFAEEDDSSNSCFSDG [REC8]
Second: QNMQQSLQQMQHLQQLK [GAL11]
The protein stability index of the first is higher: 3.33 ± 0.12 for the first, 2.89 ± 0.098 for the second.

Compared with QNSSKIVNVLSKCLNLI [SWI3], QNSYADKVTSQAVNNLI [RPP1] is higher in protein stability index: 1.31 ± 0.044 for the first, 2.11 ± 0.068 for the second.

First: QNVNVPSAFNFTGNNST [YOR098C/NUP1]
Second: QPLFSTVPEYLKTADNR [PGD1]
The protein stability index of the first is lower: 2.84 ± 0.053 for the first, 2.96 ± 0.057 for the second.

Compared with QPQQSTIGGGLFGNKPT [YGR119C/NUP57], QPSYNSAIIENAFRKEE [GAL11] is higher in protein stability index: 1.38 ± 0.19 for the first, 2.76 ± 0.055 for the second.

QPVNPKPFLKGLVNHRV [SMX3] and QQAQAQAQAQAQAQAQA [GAL11] are within error of each other in protein stability index: 3.06 ± 0.055 for the first, 3.12 ± 0.12 for the second.

Compared with QQDQPEQSEQPEQHQDK [RPN10], QQKANLLSSSNFEATKK [COR1] is lower in protein stability index: 3.13 ± 0.058 for the first, 1.91 ± 0.05 for the second.

Sequence QQNIKFRRDFLLREYDI [YJL039C/NUP192] has a protein stability index of 2.63 ± 0.037.
